The target of assay [1] is T1, 血清淀粉样蛋白A (Serum amyloid A, SAA) (UniProt P0DJI8 19-122, limits assumed).
T1 construct: Bought antigen
T1 sequence (looked up): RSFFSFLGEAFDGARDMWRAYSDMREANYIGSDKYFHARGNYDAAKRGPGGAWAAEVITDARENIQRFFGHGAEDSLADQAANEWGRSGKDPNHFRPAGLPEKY
Kind of assay: indirect ELISA, SAA coated at 2 ug/ml, antibody at 60 ng/ml. (In general: In an ELISA, binding on a coated surface is turned into a signal by an enzyme label.)

For assay [2], the target named is T1, 血清淀粉样蛋白A (Serum amyloid A, SAA). In words: BLI, antibody captured on AMC sensor, SAA in solution.
The target is the same in assay [3]. Kind of assay: indirect ELISA, SAA coated at 2 ug/ml, antibody at 15 ng/ml.
For assay [4] the target is unchanged. Kind of assay: indirect ELISA, SAA coated at 2 ug/ml, antibody at 3.75 ng/ml.
Assay [5] has the same target. In words: indirect ELISA, SAA coated at 2 ug/ml, antibody at 0 ng/ml (blank).
The target is the same in assay [6]. Kind of assay: indirect ELISA, SAA coated at 2 ug/ml, antibody at 30 ng/ml.
For assay [7] the target is unchanged. In words: indirect ELISA, SAA coated at 2 ug/ml, antibody at 7.5 ng/ml.

B1: Anti-SAA 4B3mut1 (antibody, mouse IgG1, kappa, V domains shown)
VH: QVQLQQSGAELVKPGASVKLSCKTSGYTFTNKYIYWLKQRPGQGLEWIGEIDPSNGATKFNEKFTNKATLTVDRSSTTAYVELSSLTSEDSAVYYCARGAYWGHGTLVTVSA
VL: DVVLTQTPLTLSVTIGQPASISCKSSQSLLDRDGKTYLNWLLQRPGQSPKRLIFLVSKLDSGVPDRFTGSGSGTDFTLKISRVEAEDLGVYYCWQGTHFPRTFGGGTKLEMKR
notes: Recombinant monoclonal antibody made in CHO cells, a mutant of Anti-SAA 4B3
For B1, the OD was 2.21 OD450 (ref. 630 nm) in assay [1]; 1.13 OD450 (ref. 630 nm) in assay [3]; 0.386 OD450 (ref. 630 nm) in assay [4]; 0.007 OD450 (ref. 630 nm) in assay [5]; 1.51 OD450 (ref. 630 nm) in assay [6]; 0.635 OD450 (ref. 630 nm) in assay [7]. Also, the Kd in assay [2] was 0.897 nM. In assay [2], this molecule yielded a koff of 6.75e-05 s⁻¹. The molecule also came in with a kon in assay [2] of 75200 M⁻¹ s⁻¹.

B2: Anti-SAA 9G5mut1 (antibody, mouse IgG2a, kappa)
heavy: EVHLQQSGAELVTPGASVKLSCTASGFNIKDTYMHWVKQRPEQGLEWIGRIDPANGNTKYDPKFQGKATMTADTSSNTAYLQLSSLTSEDTAVYYCARGGNYDWGQGTTLSVSSAKTTAPSVYPLAPVCGDTTGSSVTLGCLVKGYFPEPVTLTWNSGSLSSGVHTFPAVLQSDLYTLSSSVTVTSSTWPSQSITCNVAHPASSTKVDKKIEPRGPTIKPCPPCKCPAPNLLGGPSVFIFPPKIKDVLMISLSPIVTCVVVDVSEDDPDVQISWFVNNVEVHTAQTQTHREDYNSTLRVVSALPIQHQDWMSGKEFKCKVNNKDLPAPIERTISKPKGSVRAPQVYVLPPPEEEMTKKQVTLTCMVTDFMPEDIYVEWTNNGKTELNYKNTEPVLDSDGSYFMYSKLRVEKKNWVERNSYSCSVVHEGLHNHHTTKSFSRTPGK
light: DIVLTQSPASLAVSLGQRATISCKASQSVDYDGYSYLNWYQQKPGQPPKLLISAASNLESGIPARFSGSGSGTDFTLNIHPVEEEDAATYYCQQSNEDPYTFGGGTKLQIKRADAAPTVSIFPPSSEQLTSGGASVVCFLNNFYPKDINVKWKIDGSERQNGVLNSWTDQDSKDSTYSMSSTLTLTKDEYERHNSYTCEATHKTSTSPIVKSFNRNEC
notes: Recombinant monoclonal antibody made in CHO cells, a mutant of Anti-SAA 9G5
B2: the OD in assay [1] is 2.26 OD450 (ref. 630 nm); in assay [3], 1.23 OD450 (ref. 630 nm); in assay [4], 0.474 OD450 (ref. 630 nm); in assay [5], 0.011 OD450 (ref. 630 nm); in assay [6], 1.95 OD450 (ref. 630 nm); in assay [7] it was 0.767 OD450 (ref. 630 nm). In assay [2], this molecule registered a Kd of 0.906 nM. In addition, the off-rate constant (koff) in assay [2] came to 6.67e-05 s⁻¹. Besides, in assay [2], the kon amounted to 73600 M⁻¹ s⁻¹.

B3: Anti-SAA 9G5mut2 (antibody, mouse IgG2a, kappa)
heavy: EVHLQQSGAELVTPGASVKLSCTASGFNIKDTYMHWVKQRPEQGLEWIGRIDPANGNTKYDPKFQGKATMTADTSSNTAYLQLSSLTSEDTAVYYCARGGNYDWGQGTTLSVSSAKTTAPSVYPLAPVCGDTTGSSVTLGCLVKGYFPEPVTLTWNSGSLSSGVHTFPAVLQSDLYTLSSSVTVTSSTWPSQSITCNVAHPASSTKVDKKIEPRGPTIKPCPPCKCPAPNLLGGPSVFIFPPKIKDVLMISLSPIVTCVVVDVSEDDPDVQISWFVNNVEVHTAQTQTHREDYNSTLRVVSALPIQHQDWMSGKEFKCKVNNKDLPAPIERTISKPKGSVRAPQVYVLPPPEEEMTKKQVTLTCMVTDFMPEDIYVEWTNNGKTELNYKNTEPVLDSDGSYFMYSKLRVEKKNWVERNSYSCSVVHEGLHNHHTTKSFSRTPGK
light: DIVLTQSPASLAVSLGQRATLSCKASQSVDYDGYSYLNWYQQKPGQPPKLLISAASNLESGIPARFSGSGSGTDFTLNIHPVEEEDAATYYCQQSNEDPYTFGGGTKLQIKRADAAPTVSIFPPSSEQLTSGGASVVCFLNNFYPKDINVKWKIDGSERQNGVLNSWTDQDSKDSTYSMSSTLTLTKDEYERHNSYTCEATHKTSTSPIVKSFNRNEC
notes: as for B2
For the molecule B3, the OD was 2.31 OD450 (ref. 630 nm) in assay [1]; 1.3 OD450 (ref. 630 nm) in assay [3]; 0.501 OD450 (ref. 630 nm) in assay [4]; 0.011 OD450 (ref. 630 nm) in assay [5]; 2.01 OD450 (ref. 630 nm) in assay [6]; 0.801 OD450 (ref. 630 nm) in assay [7]. In assay [2], this molecule showed a Kd of 0.875 nM. The koff in assay [2] amounted to 6.52e-05 s⁻¹. This molecule registered a kon in assay [2] of 74500 M⁻¹ s⁻¹.

In general, Kd refers to the free concentration of one partner at which half of the binding sites on the other are occupied at equilibrium, for simple one-to-one binding. A low value points to higher affinity. A word on the koff: it is the first-order rate constant of dissociation. Read a high koff as a short-lived complex. Usually kon stands for a measure of how fast the partners come together. A lower kon goes with slower complex formation.

These data come from patent publication CN116836273A (DONGGUAN PENGZHI BIOTECHNOLOGY CO LTD, dated 2023).
